From the DeepSol protein solubility set come the findings set out here.

This data set can be described thus: soluble on expression in E. coli; label from the status in PepcDB or PDB records.
Regarding “MSLNLVSEQLLAANGLNHQDLFAILGQLAERRLDYGDLYFQSSYHESWVLEDRIIKDGSYNIDQGVGVRAISGEKTGFAYADQISLLALEQSAQAARTIVRENGEGKVKTLAAVAHQPLYTTLDPLQSMSREEKLDILRRVDKAAREADKRVQEVNASLTGVYELILVAATDGTLAADVRPLVRLSVSVQVEEDGKRERGASGGGGRFGYEYFLADLDGEVRADAWAKEAVRMALVNLSAVAAPAGTLPVVLGAGWPGVLLHEAVGHGLEGDFNRRGTSVFSGQIGEQVASALCTVVDDGTMMNRRGSVAIDDEGTPGQYNVLIENGVLKGYMQDKLNARLMGAAPTGNGRRESYAHLPMPRMTNTYMLAGQSTPQEIIESVEYGIYAPNFGGGQVDITSGKFVFSTSEAYLIENGKVTTPVKGATLIGSGIETMQQISMVGNDLKLDNGVGVCGKEGQSLPVGVGQPTLKVDNLTVGGTA”, the “soluble on expression in E. coli” value is reported as “not soluble”.
For “MEENMNIKQLKSKTMLGTVALVSAFSFASTNADANTYNYAVDVDYLASAEEIAQAHPASNTFPLGQCTWGVKEMATWAGNWWGNGGDWAASAASADYTVGTQPRVGSIVCWTDGSYGHVAYVTAVDPVTNKIQVLESNYAGHQWIDNYRGWFDPQNTVTPGVVSYIYPNLEHHHHHH” the value was “not soluble”; for “MADKIKVSLLGSTGMVGQKMVKMLAKHPYLELVKVSASPSKIGKKYKDAVKWIEQGDIPEEVQDLPIVSTNYEDHKDVDVVLSALPNELAESIELELVKNGKIVVSNASPFRMDPDVPLINPEINWEHLELLKFQKERKGWKGILVKNPNCTAAIMSMPIKPLIEIATKSKIIITTLQAVSGAGYNGISFMAIEGNIIPYIKGEEDKIAKELTKLNGKLENNQIIPANLDSTVTSIRVPTRVGHMGVINIVTNERINIEEIKKTLKNFKSLPQQKNLPTAPKQPIIVRDEEDRPQPIIDVNAESGMAVTVGRIRHENNVLRLVVLGDNLVRGAAGITILTVEVMKELGYI”, “soluble”.
Next, “MGSDKIHHHHHHMARMFYDEMHDAGGECRSHYREFARWLADTPEEQLLQRRREADLLFHRAGITFTLYGDEQGTERLIPFDTIPRSIPAAEWAHIEAGCIQRVQALNLFLADLYHEQRILKAGVIPAEQVLANDQYQLAMQGLDLPGNVYAHIAGVDLVRDGSGNYYVLEDNLRTPSGVSYMLENRKMMMRLFPELFVRQRVAPIDHYPDLLLDTLKRASDVESPSVVVLTPGRFNSAYFEHAFLAREMGVELVEGADLFVRDERVYMRTTAGPQPVDVIYRRIDDAFLDPLAFNPDSLLGVPGLLAAYRAGNLVLANAIGTGVADDKSIYPYVPDMIRFYLGEDPLLHNVPTWQCRKPKELAHVLAHLPELVVKETQGSGGYGMLVGPAASREEIELFRERLKARPEAYIAQPTLSLSTCPTFVESGVAPRHIDLRPFVLSAPDRVRLVPGGLTRVALREGSLVVNSSQGGGTKDTWVVEE”: “not soluble”; “MSLTLYKPNETDFTHNGIGALDKNIYNATVEEELNGLFLFSFSYPLFAPHGLEIEGMSIIKVPTPDGEQLFRVAAPKASMGEVTAQCYHIFYDLTENLIEDIFAETTNGNGAMNRMSAGCQYKHPFQFYSDVPKIASARIVRKNPVEALLDSSQDNSFVNRWGGELKRDNFDVKMLQNRGMDRGVVIRHKKDLLGYEGNVDWKSPITRIMPQGFDGLFLPEKYVDSPLINKYPHPKIKVVEFKHIKAAIGENADDEDAVPLEEAYRLLRQAAKGMFTIQKADQPKATYNVKFQELSQTEEYKDYKHLQSVYMADTVTVEHQEDGIDIKAKVIAYKYDPIKKEYLDVTIGNFKESFTDVSGRVDLVQEELSNMPSSILDAAKVNATSLINSGFGGHVRVYPNRILIMDTKDEKSAKKVWQWNLNGLGYSSTGVNGPYGTAITSDGRIVADFITAGTLSGNFVRGGEITGSTEGHHHHHH”: “soluble”; “MYAAYQTNGPARPIARTAAFTKEDDLLVDMARQNNLRGRILTYCVAGTFGLLSPNYLHASAATANWDINQIEISGLSESSVGAISESARDIAHIRAVTKISVSELSRVFGVSRQAVHEWIKGGTLSQRNAQRLSELARATDVFIEAEIEASPQVFRRKIAGGQSILDAVRENGNAVELAKTLAATLVRESQQRQRLAARLAGRSATPGTSTEFGSPHLDEDA”: “not soluble”.
Next, “SHLVVESFPSYRDVTLFEGKRVSFYKRAQILVADTWSVLEGKGDGCFKDISSITMFADYRLPQVLAHLGALKYSDDLLKKLLKGEMLSYGDRQEVEIRGCSLWCVELIRDCLLELIEQKGEKPNGEINSILLDYYLWDYAHDHREDMKGIPFHRIRCIYY”: “soluble”.
For “MGAQYLKRVYLMSVIAETNEALLAKIKALCGDYLREVDTHPGQWDDSSVRRLVRNPPAVYVAWLGQQPNNNPHTVTARWGVFVVAEVLNGQRRNAVGIYQIVETLTAGLHKQRIAPSGMFELQTVQNLWSDTQSGMGVAVYGMYFNAVQPLPDMTSDDTLCDFKIYDHTFNQDKDEHTIDGKTRLTVELPTQSD”, the “soluble on expression in E. coli” value is on record as “not soluble”.
Next, “MPGGVSSPVRAFKSVGGQPIVFDHVKGAHIWDVDGNQYIDYVGSWGPAIVGHAHPEVIDALHAALEKGTSFGAPCLLENILAEMVIAAVPSVEMVRFVNSGTEACMAVLRLMRAYTQREKVIKFEGCYHGHADMFLVKAGSGVATLGLPDSPGVPKATTAATLTAPYNDLEAVSRLFEQYPNDIAGVILEPVVGNAGFIPPDAGFLEGLRELTKQYGALLVFDEVMTGFRIAYGGAQEKFGVTPDLTTLGKVIGGGLPVGAYGGRAEIMKMVAPAGPVYQAGTLSGNPLAMTAGIKTLEILSRPGSYEHLDRITGKLVQGLLDAAREFGHEVCGGHISGMFGLFFTAGPVTNYEQAKQSDLKKFAAFHRGMLEQGIYLAPSQFEAGFTSLAHTEADIERTIAAARTVLSQL”: “soluble”; “MKKEEGLTENTGLPRKLLEKHDPWPAYVTYTSQTVKRLIEKSKTRELECMRALEERPWASRQNKPSSVIQPKRRKSSKSSGKAVFRDTLSESTLSMWGAYSVLAMAPTMIPEPTHLHADSRDCPTENYNKIIFARKPMMRMLPTVRY”: “not soluble”.
For “MSELSQLSPQPLWDIFAKICSIPHPSYHEEQLAEYIVGWAKEKGFHVERDQVGNILIRQPATAGMENRKPVVLQAHLDMVPQKNNDTVHDFTKDPIQPYIDGEWVKARGTTLGADNGIGMASALAVLADENVVHGPLEVLLTMTEEAGMDGAFGLQSNWLQADILINTDSEEEGEIYMGCAGGIDFTSNLHLDREAVPAGFETFKLTLKGLKGGHSGGEIHVGLGNANKLLVRFLAGHAEELDLRLIDFNGGTLRNAIPREAFATIAVAADKVDALKSLVNTYQEILKNELAEKEKNLALLLDSVANDKAALIAKSRDTFIRLLNATPNGVIRNSDVAKGVVETSLNVGVVTMTDNNVEIHCLIRSLIDSGKDYVVSMLDSLGKLAGAKTEAKGAYPGWQPDANSPVMHLVRETYQRLFNKTPNIQIIHAGLECGLFKKPYPEMDMVSIGPTITGPHSPDEQVHIESVGHYWTLLTELLKEIPAKLEHHHHHH” the value was “soluble”; for “MAPRGRYGPPSRRSENRVVVSGLPPSGSWQDLKDHMREAGDVCYADVYRDGTGVVEFVRKEDMTYAVRKLDNTKFRSHEGETAYIRVKVDGPRSPSYGRSRSRSRSRSRSLEH”, “soluble”.
Next, “MENQPKLNSSKEVIAFLAERFPHCFSAEGEARPLKIGIFQDLVERVGGEMNLSKTQLRSALRLYTSSWRYLYGVKPGATRVDLDGNPCGELEEQHVEHARKQLEEAKARVQAQRAEQQAKKREAAAAAGEKEDAPRRERKPRPVARRKEGAERKPRADKPTTKAPRAPREEKHTPVSDISVLTVGQSLKVKAGNNAMDATVLEITKDGVRVQLNSGMSLIVRAEHLVF”: “not soluble”; “SPAPAATYERVVYKNPSEYHYMKVCLEFQDCGVGLNAAQFKQLLISAVKDLFGEVDAALPLDILTYEEKTLSAILRICSSGLVKLWSSLTLLGSYKGKKCAFRVIQVSPFLLALSGNSRELVLD”: “soluble”; “MSSINITNVTVLDNPAPFVNPFQFEISYECLTSLKDDLEWKLIYVGSAEDETYDQVLESVLVGPVNVGNYRFVLQADSPDPLKIREEDIIGVTVLLLTCSYMDQEFIRVGYYVNNDYDDEQLREEPPTKVLIDKVQRNILTDKPRVTKFPINFHPENEQTLGDGPAPTEPFADSVVNGEAPVFLEQPQKLQEIEQFDDSDVNGEAIALLDQPQNLQET”: “soluble”.
With “AQVDLLNVKGEKVGTLEISDFVFNIDPNYDVMWRYVDMQLSNRRAGTASTKTRGEVSGGGRKPWPQKHTGRARHGSIRSPIWRHGGVVHGPKPRDWSKKLNKKMKKLALRSALSVKYRENKLLVLDDLKLERPKTKSLKEILQNLQLSDKKTLIVLPWKEEGYMNVKLSGRNLPDVKVIIADNPNNSKNGEKAVRIDGLNVFDMLKYDYLVLTRDMVSKIEEVLG”, the “soluble on expression in E. coli” value is recorded as “soluble”.
Next, “MSLDIARIAVHESVAKACPLEAMVAALQGPDVRVETVGDDASFDASDCVVTFSPREAFLDAAWVHGIRAGYDEFDVDAYEAAGTVLTNSTGIHGDTVPETVVGYLTAFARRLHVYRDRQRDNDWTQEPYDAPFTLTGEQVCVVGLGTIGQGVADRTDALGMDVVGVRRSGDPAENVERVYTPDELDAAVADARFVVLCCPLTEETEGMVDAALLAQMRADSYLVNVARGPVVVEDALLNALDTGTIAGAALDAHWAEPLPDDHPLWNHESAIVTPHVAAATSRYHEDIAALVRENVERATRGESLRNRVAEGHHHHHH”: “not soluble”; “MSLKHHGKIKIKHAVKVLKVSRSGFYEYMHRRPSKQQVEREILSEKIKAVFHEHKGRYGAVRITKVLHNTGIMTNTKRVGKLMHLMGLYAKGSRYKYKHYNRKGASLSRPNLINQIFKATAPNKVWLGDMTYIPTKEGTLYLAVNIDVFSRKIVGWSMSSRMQDKLVRDCFLQACGKEHPQPGLIVHTDQGSQYTSSRYQSTLRQVGAQSSMSRKGNPYDNAMMESFYKTLKRELINDAHFETRAEATQEIFKYIETYYNTKRMHSGLDYKSPKDFEKYNSEGHHHHHH”: “not soluble”; “MGSDKIHHHHHHMNQSNCIVAQSGGPTVAINASLAGVIAGVKSSEKYDICYGAVNGILGILNENYLNLSDIFADDANLEKLKTTPAMYLGSCRHKLPDYKDDDSPYVYIFHQFDKLSIKAFFYIGGNDSMDTVLKLSDYAKKINSDVKIIGIPKTIDNDLCMTDHTPGFGSAAKYIASSMLEIAHDTFIYAVKSVTIVEIMGRDAGWLTAASALARNEYNTAPQFIYLPEVNFDKDKFVADIKEALAHTNNVIVAVSEGIHDADGSYITSSKAACDQFGHQQLSGAGKALEFIVKENIGVKVRSVEVNVLQRCASHLASLTDIEESFAQGKKGVTIAAEGVTASMVCLKRISNKPYQVEYTYSAIKDIANEAKSVPREWINDAGNDVKPELIEYLKPLIQGETAVAYKNGLPDYMDVSHLHKCN”: “not soluble”.
In the case of “PELPTCLTRRLADYATEKPLVRLFFQGEEATVPFISQTSRELNMDINILLANIDRFDGVTCGVLVVELTANPLLLEAFINRCEQAGITVEVLGYVLPDGL”, the “soluble on expression in E. coli” value is “not soluble”.
For the sequence “MAHHHHHHMQDEAVRAALQSGVWREKKDPKSGKTYYVNVQTRVSVWNLAKELARLQQQQKFTEEMELRKQKKLRSLAEERQAQAKKWQEEEEALMQRMAELEREKARLESEITILQGPTEVEAASLQEEQSRLLDAKQSLELIVSEELRKRRESAAELQQLQARLEALRQERQEELGMFESLRKRLEQLRQEHAEALADLQREEAVEESLREELQREERQLEDALHEEVRLKELLKMREDEVDRMKAELKAVCQRKAELQQQHQRLLEEVAESAMGAAEDTLQEPPPSSSLLLSHLQREVANRKKSLRHLMQQQRLAKEAEWMEAESAELRRFTALAEREAQRLAQFSRELSDQVRAVTPLLEAVKHDVQQLEEEMEELR”, the “soluble on expression in E. coli” value is “soluble”.
